Earlier results as cited in article PMC7339208.

Legend:
IL-15 (Homo sapiens) = IL-15 (Homo sapiens) (UniProt P40933)
IL-2 (Homo sapiens) = IL-2 (Homo sapiens) (UniProt P60568)
Sequence of UniProt P60568 (P60568 21-153): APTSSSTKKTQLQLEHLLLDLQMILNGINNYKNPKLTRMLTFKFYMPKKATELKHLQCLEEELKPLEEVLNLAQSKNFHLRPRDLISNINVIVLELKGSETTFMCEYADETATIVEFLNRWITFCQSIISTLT

Sequence of UniProt P40933 (P40933 49-162): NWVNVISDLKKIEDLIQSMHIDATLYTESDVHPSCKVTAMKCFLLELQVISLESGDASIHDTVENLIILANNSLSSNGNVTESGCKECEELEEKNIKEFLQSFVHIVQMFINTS

IL-15Rα (from UniProt Q13261)
Kd (IL-15 (Homo sapiens)): 0.1 nM

IL-2Rα (from UniProt P01589)
Kd (IL-2 (Homo sapiens)): 10 nM
